Measurements published in article PMC11094772.
Where two headings read alike, the source gives them in different places.

What was measured:
Assay in all cases: BLI
[1] = target: KRAS4B (residues 1-185, C118S) tethered to nanodiscs (UniProt P01116)
[2] = target: KRAS4B (residues 1-185, C118S) tethered to nanodiscs (UniProt P01116); remark: listed apart in the source
[3] = target: KRAS4B (residues 1-185, C118S) tethered to nanodiscs (UniProt P01116); remark: listed apart in the source
[4] = target: KRAS4B (residues 1-185, C118S) tethered to nanodiscs (UniProt P01116); remark: listed apart in the source

| Kd [1] [nM] | koff [1] [s⁻¹] | kon [1] [M⁻¹ s⁻¹] | Kd [2] [nM] | koff [2] [s⁻¹] | kon [2] [M⁻¹ s⁻¹] | Kd [3] [nM] | koff [3] [s⁻¹] | kon [3] [M⁻¹ s⁻¹] | Kd [4] [nM] | koff [4] [s⁻¹] | kon [4] [M⁻¹ s⁻¹] | Substance |
| --- | --- | --- | --- | --- | --- | --- | --- | --- | --- | --- | --- | --- |
| 57.4 | 0.00395 | 69000 | 28.6 | 0.00269 | 94100 | 29.1 | 0.0034 | 106000 | 18.5 | 0.00185 | 105000 | D-BRAF: dimeric MBP-BRAF(S365A):14-3-3 complex (2 MBP-BRAF: 2 14-3-3) (from UniProt P15056 1-766) |
| 177 | 0.00372 | 21100 | 93.3 | 0.00235 | 25400 | 65.5 | 0.00266 | 44200 | 68.2 | 0.0016 | 24000 | M-BRAF: monomeric MBP-BRAF(WT):14-3-3 complex (1 MBP-BRAF: 2 14-3-3) (from UniProt P15056 1-766) |
| 25.5 | – | – | – | – | – | – | – | – | – | – | – | tagless dimeric BRAF(S365A):14-3-3 complex (MBP removed by TEV protease) (from UniProt P15056 1-766) |
| 35.5 | – | – | – | – | – | – | – | – | – | – | – | tagless monomeric BRAF(WT):14-3-3 complex (MBP removed by TEV protease) (from UniProt P15056 1-766) |
